Measurements taken from patent US20230348578A1 (BETH ISRAEL DEACONESS MEDICAL CENTER, published 2023).
Changes are numbered by the printed parent chain.

B1: Cis-mAb HT18 (humanized) (antibody, V domains shown)
VH: QVQLVQSGAEVKKPGSSVKVSCKASGYTFTSYWIHWVRQAPGQGLEWMGVIDPSDSYTRYNQKFKGRVTITRDTSMSTAYTELSSLRSEDTAVYYCTTWEVDYWGQGTLVTVSS
VL: DIQMTQSPSTLSASVGDRVTITCRSSQSLVHSDGNTYLHWYQQKPGKAPKLLIYKVSNRFSGVPSRFSGSGSGTEFTLTISSLQPDDFATYYCSQSTHVPWTFGQGTKLEIK
B2: Cis-mAb HT13 (mouse-human chimera, control) (antibody, V domains shown)
VH: QVQLQQPGAELVKPGASVKMSCKASGYTFTSYWIHWVKQRPGQGLEWIGVIDPSDSYTRYNQKFKGKATLTVDTSSSTAYMQLSSLTSEDSAVYYCTTWEVDYWGQGTTLTVSS
VL: DVVMTQTPLSLPVSLGDQASISCRSSQSLVHSDGNTYLHWYLQKPGQSPKLLIYKVSNRFSGVPDRFSGSGSGTDFTLKISRLEAEDLGVYFCSQSTHVPWTFGGGTKLEIK
B3: Cis-mAb HT1 (humanized) (antibody, V domains shown)
VH: B2 VH with Q5V, P7S, V12K, K67R, S76A, L110V
VL: B2 VL with T7S, S14T, D17Q, Q18P, K50Q, L83V, L88V, L109V
B4: Cis-mAb HT2 (humanized) (antibody, V domains shown)
VH: B1 VH with S16A, V20M, R38K, A40R, M48I, V68A, I70L, R72V, M76A, T81M
VL: B2 VL with T7S, S14T, D17Q, Q18P, K50Q, L83V, L88V, L109V
B5: Cis-mAb HT8 (humanized) (antibody, V domains shown)
VH: B1 VH with S16A, A40R, M48I, M76A, T81M
VL: B2 VL with T7S, S14T, D17Q, Q18P, K50Q, F60D, L83V, L88V, L109V
B6: Cis-mAb HT3 (humanized) (antibody, V domains shown)
VH: B1 VH with S16A, A40R, M48I, I70L, R72V, M76A, T81M
VL: B2 VL with T7S, S14T, D17Q, Q18P, K50Q, L83V, L88V, L109V
B7: Cis-mAb HT10 (humanized) (antibody, V domains shown)
VH: B1 VH with S16A, V20M, R38K, A40R, M48I, V68A, I70L, R72V, M76A, T81M
VL: B2 VL with T7S, S14T, D17Q, Q18P, K50Q, L83V, L88V, F92Y, L109V

Each binder was assayed against cis P-tau in cultured neurons stressed by hypoxia (assay: cell-based or functional assay).

Row | Binder | Cis P-tau elimination
1 | B1 | 0.8 relative (HT13 = 1.0)
2 | B2 | 1 relative (HT13 = 1.0)
3 | B3 | 1.7 relative (HT13 = 1.0)
4 | B4 | 1.5 relative (HT13 = 1.0)
5 | B5 | 0.9 relative (HT13 = 1.0)
6 | B6 | 1.6 relative (HT13 = 1.0)
7 | B7 | 0.9 relative (HT13 = 1.0)
